Source: the DeepSol protein solubility set

Assay: soluble on expression in E. coli; label from the status in PepcDB or PDB records

Sequence: MGSDKIHHHHHHMKKVTLLVLDGFGVGAMADCEKVKPEDVNANTYKHLREAVDIHIPTLYQLGLGNIVDHLDTARAAYGRCDLAHHGADTFMGHQELMGSKPGVPQKRLMSEVGATIKKNLEKHGYDVRDPVEGAPVLLVNEAVVVGDNLESEVGNIINVVGDFRKLSFEQTIEVGKVVRSSVDTSRVIVYGNKEKTSIDLILSTIKERHPGQWGVDSPKANVYGEGYQVLHLGYGVDYEKQFAHLAEKQRLPVYRIGKTADVIQASGYHNPVVSTRKVLEVYQHEYSKSERDSVFLVNVQETDLAGHKEDCLWYKEVIEEVDRFLASFIDELDEEDLLIITADHGNDPTIGHSNHTREQTPVIIVGPQVRPISIGTRQTMADLAATMADYMGVAPPQYGTSFLHQILR
- soluble on expression in E. coli: not soluble

Sequence: MEKLTIQEEEVMLHIWSMGECFVKDIVAKFPEPKPPYTTVASIVNNLKRKGYVTAKRFGNTYQYTPVVKQSEYKRTFVSGVVRNYFADSYKEMVSFFAKEQKISAADLKDIINLIEKEEDK
- soluble on expression in E. coli: not soluble

Sequence: MGSDKIHHHHHHMAQLVAIDNKNHLNLKVDAAKAELHGAGLHLVPAVMAEFTSMAVQYPLVITKNADTGQFVVAAMLGFESGENLFWRGGQWQGLYLPLQIRRQPFFVGNPEQNSEQKVAGDYVVCFDSESPAIVSNDGQALFSEDGVDTEYFQQAKYCLAQLLEGELANKKLLEQLQSMELLQVMQMEVTFANQQSTTLNGLYTIDTEKLAALSAEKIASLHKAGLLQAIYTLITSLGQIHHLIDLKNKQLGC
- soluble on expression in E. coli: not soluble

Sequence: TADVRTAENMGVRAYTVATAITFQGSGSYRGERWVDSADIIRQIESLSAEMEPAVAKIGLIRDSDTLSLVVDCLKKVFPSIRIVWDPVLRASADSSAGQADRFNLEDITALSRIDFITPNLPEARHLLGCEPDDETLLDFYRRSGVGLVLKGGHAGESVVTDRIVYDGRCEALRLLRGGTGKHGTGCAHSTAFAAALALEQEPFTAAGMAQLYVSRLRERASGLLAMHKDLPVDPVVR
- soluble on expression in E. coli: not soluble

Sequence: MGSDKIHHHHHHSDKKNTADESEKGVSTVLPDTKNEVAVQILKKRDFHHELVSNGKISARGKADLRFETGEVIAHIYVKNGDRVQKGQKLADLDKFRLEQKLSQSEDALLKAELELKDVLIGQGYSPDDFSKVPAETMKIAKVKSGYEQSKSQYELAKREMEHATLIAPFDGVVANLFSKPYNPANTSEAFCTIIDSKGMEADFTVLENELAFIRMGDKVVITPYAGGDAFEGSVSEINPLVDANGMVKVKALVNAGGKLFSGMNVRVSVRRSLGERLVIPKSAVVLRSGKQVVFTLKDGKAMWNYVNTGLENAIECVVSDKSQKGIEDGLLEGDTVIVTGNLNLAHEAEVYVK
- soluble on expression in E. coli: not soluble

Sequence: MGKLMEIIIISGRSGAGKSVALRALEDAGYYCVDNIPLDLLPQLTDILSQSQSSVAISLDIRNIPNSAHSLKQTLSTLQKHHQIKIIFLEADRATLIRRYSDSRRLHPLSLKDLSLEAAIDEEYRYLEPLIQHANLILDTTHLSTHSLAERLREFLRGNSEKELKIIVESFGFKYGIPLDADYVFDVRFLPNPHWDPTLRPMTGLEAPVAEFLNSHTEVNEFIYLTRHYIDTWLPMLEKNNRSYLTIAIGCTGGKHRSVYIAQQLGEYFQAKGKTVKIQHKSLERNKKI
- soluble on expression in E. coli: not soluble

Sequence: PPNEQAVLNMYEGKRSELSQIYSNITDLEMQVSEHSLVINAIQPLDQSRKCFRMIGGVLVERTIKEVLPAVQRNKDGLEEVVRKLYETLEKKKKDLTEFEAKYKIRITKQEDNKEGGNKKEGNAQGVLVGAASSSQ
- soluble on expression in E. coli: not soluble

Sequence: MSLANGIEFNQNPASVFNSNSLDFELESQQLTQKNSSNTSSPLINLQNELAMITSSSLSETIEGLSLGYRKGSARKEEEGTTIEKLLNEMQELLTLTDSDKIKELSLKNSGLLEQHDPTLAMFGNMPKGEIVALISSLLQSKFVKIELKKKYAKLLLDLLGEDDWELALLSWLGVGELNQEGIQKIKKLYEKAKDEDSENGASLLDWFMEIKDLPEREKHLKVIIRALSFDLSYMSSFEDKVRTSSIISDLCRIIIFLSLNNYTDIIAISIKKDKDVILNEMLSIIEHVWLTEDWLLESPSRVSIVEDKHVYYFHLLKEFFASLPDACFIDNEQRSNTLLMIGKVIDYKEDVMEGHHHHHH
- soluble on expression in E. coli: soluble

Sequence: MSLTTLNIGLILPDVLGTYGDDGNALVLRQRARMRGINAEIQRVTLDDAVPSTLDLYCLGGGEDTAQILATEHLTKDGGLQTAAAAGRPIFAVCAGLQVLGDSFRAAGRVIDGLGLIDATTVSLQKRAIGEVETTPTRAGFTAELTERLTGFENHMGATLLGPDAEPLGRVVRGEGNTDVWAASENTDDQRQQFAEGAVQGSIIATYMHGPALARNPQLADLMLAKAMGVALKDLEPLDIDVIDRLRAERLAEGHHHHHH
- soluble on expression in E. coli: soluble
